The results in this text go back to paper PMC12000384, “Competition for the nascent leading strand shapes the requirements for PCNA loading in the replisome” (The EMBO Journal, 2025).

This experiment concerns the target T1, CMG (Cdc45-MCM-GINS) helicase (S. cerevisiae, UniProt Q08032 1-650; P29469 1-868; P24279 1-971; P30665 1-933; P29496 1-775; P53091 …).
T1 construct: Cdc45, S. cerevisiae; Mcm2, S. cerevisiae; Mcm3, S. cerevisiae; Mcm4, S. cerevisiae; Mcm5, S. cerevisiae; Mcm6, S. cerevisiae; Mcm7, S. cerevisiae; GINS subunit, S. cerevisiae; 11-subunit helicase; The two strains express the same chains; in yVA94 endogenous Ctf4-2xStrep was depleted on Strep-Tactin resin; also called Ctf4-depleted CMG; wild-type CMG; source: S. cerevisiae, overexpressed, …
Kind of experiment: cryo-EM structure; replisome reconstituted on ice on forked DNA with 0.5 mM AMP-PNP from 150 nM CMG (Ctf4-depleted), Pol ε^exo-, Ctf18-RFC, Tof1-Csm3, Ctf4 and Mrc1 in 25 mM HEPES-NaOH pH 7.6, 150 mM NaOAc, 15 mM Mg(OAc)2, 0.5 mM TCEP; 10-30% glycerol gradient with glutaraldehyde and BS3 cross-linking. As to conditions: both partners purified.

B1: Ctf4 (natural protein, S. cerevisiae, UniProt Q01454 1-927, looked up)
chain: MVSVIDKLVFDFGGKTLVSLAPDNNTLCVANKNGLTKILKTNNPEEEPETLDSSKLVSSIKCYSNSHFLMTTMQGDALRYNIDSSQEELLARFALPLRDCCVIHSGKMAVFGGDDLELILLELDDETHKKHAIKIDEQVSQISYNSQMNILAVSMINGKVQIFSLTSTIPNKVHELNDYIVANSYDDTHRDKILSNMMDDIDKDNDNDLSETADPDENNVADPEFCAANRICTRVAWHPKGLHFALPCADDTVKIFSIKGYSLQKTLSTNLSSTKAHFIDLQFDPLRGTYIAAVDLNNKLTVWNWETSEIHYTREFKRKITNIAWKIQADSKTLDLVLGTWSGSIAIVQNLAESVVSNIPDQSVAESSTKHGLFVDSESDLENLEGNDDINKSDKLFSDITQEANAEDVFTQTHDGPSGLSEKRKYNFEDEEDFIDDDDGAGYISGKKPHNEHSYSRVHKTHSFPISLANTGKFRYMPFSPAGTPFGFTDRRYLTMNEVGYVSTVKNSEQYSITVSFFDVGRFREYHFEDLFGYDLCFLNEKGTLFGQSKTGQIQYRPHDSIHSNWTKIIPLQAGERITSVAATPVRVIVGTSLGYFRSFNQFGVPFAVEKTSPIVALTAQNYRVFSVHYSQFHGLSYSLSELGTSSKRYYKRECPLPMSLPNINSDMKKDANLDYYNFNPMGIKSLFFSSYGDPCIFGSDNTLLLLSKWRSPEESKWLPILDSNMEIWKMSGGKETTDIHVWPLALAYDTLNCILVKGKHIWPEFPLPLPSEMEIRMPVFVKSKLLEENKAILNKKNEIGADTEAEEGEEDKEIQIPVSMAAEEEYLRSKVLSELLTDTLENDGEMYGNENEVLAALNGAYDKALLRLFASACSDQNVEKALSLAHELKQDRALTAAVKISERAELPSLVKKINNIREARYEQQLK
notes: Ctf4, S. cerevisiae; source: purified as in Yeeles et al, 2015
With B1, the binding result is listed as “binds”.

B2: Tof1-Csm3 (complex, S. cerevisiae)
chain 1: MSADLQQGTTNAADFSLTVLRARIALLATAIGGPDYTSQIDPPPYKLGDDCLACLKDLKRWFKLVDDQQKRWDVAMAVAEYRILTDDLLPILIDWENKCSLAAKLAKNNPDHEEFRNKAYYDKIALNCLQLLVLMTWPLIVTEQSSSNQITLYGELKKHQLVYKKTILSMESGKVLRAAIRLALDVIKIDRLSRTPRDNMVLKLVLNFFRNVIAIEPGEFTINTKKSMPKKGITSIDTLPPNVSMDDISLNTVISSFHKNKVFGFLLTLTSSLSKEFDQDFINIPLLEIMFYFTKDVNQELLFPRQFETGTHSKVVNKNESSSANNIVTSAGFELSKLLQKEHQMRKNVIKHTSARHSRFGGLLSIQTPDKTRLTVSGSQALVDEKIALQKLDDSKKWNKRIIKKHQSVAAEGLPNSLLNSQTGKAIFFTESNGKHFKEFINNFIDSGFNILLHSVTNYFTTEQDRMVTLEQVEYLLFFAWFVKYQLLRSKIDNSADIKQVSEALKEVTFILVSSLLRSAYDLKNWTVTHAGMIAFNELLNLVSRTKAAQEEDSTDIEFIVSRLFSDERIQLLSNLPKIGSKYSLQFMKSCIELTHSVLKVLEQYSDDKTLVIEGKSRRQKKFNISEGDITKLIEEENVDRDEALDILTSSLRSIEVNFQKVQANYMTEPVIETYINFLERFRELEDDSIKKVFSFFHRVFVQAKEQALLFRFDLIILLREMLSPDGLDRMSRSRKYVSQFSDYFLARLKKRLKKSPAWFVGLLFPPLHNSEVGFYQRYGEYNVLNNESMYAAPASQFKPIPDEEALPPSILLDMKYGVLVSTLLDDGKTELLDQLLKHITHTLDIFKSWLTVNVNAGKETVNPPNEYFTLTGVLNNDPIFKDKDYRALLLLIGYSIPRKINEPCFLPGTVEVSDLTVSCELVKKYLSTPFETPNGLPSSSYLLRVRSEKDSFSHNEQDGWEGDDDYDYNDPYIVPDDQILSKSDAAYFKDLDNNASDKLKGTKFSKGIARSKKKDKRKRRKGEAKTNLPMFGDQDDERPQTVRERHGVFSKEFISDSEDDEDLMNPIFFENETYMRWLLDKNNGQLTEDRYIQFAKFAAERMNNGGVVTGDYTSLFGGSIPSIESIRATESSSFAPDKSLISLASHVASEMSIFDVNNNNNNQLSDDDVNSESRNSLGSSQPSNSQNMFQSEVYSRKESTKRSLEASAADESDEDEEAIRLFGKKSRVVLSQGDSDD
chain 2: MDQDFDSLLLGFNDSDSVQKDPTVPNGLDGSVVDPTIADPTAITARKRRPQVKLTAEKLLSDKGLPYVLKNAHKRIRISSKKNSYDNLSNIIQFYQLWAHELFPKAKFKDFMKICQTVGKTDPVLREYRVSLFRDEMGMSFDVGTRETGQDLERQSPMVEEHVTSAEERPIVADSFAQDKRNVNNVDYDNDEDDDIYHLSYRNRRGRVLDERGNNETVLNNVVPPKEDLDALLKTFRVQGPVGLEENEKKLLLGWLDAHRKMEKGSMTEEDVQLIQSLEEWEMNDIEGQHTHYDLLPGGDEFGVDQDELDAMKEMGF
notes: Tof1, S. cerevisiae; Csm3, S. cerevisiae; source: purified as in Yeeles et al, 2017
As to B2, the binding result is on record as “binds”.
